Patent publication US20220204580A1 (AstraZeneca / MedImmune, published 2022)
Numbered stars: 1 amine (or outer) side, 2 acyl side, 3 side chain; on linkers, the order of the positions; unused ones are H or OH. Bridge positions count the residues as written; N and C are the ends. Square brackets hold non-standard residues; d marks the D form. Side chains are listed from the residue outwards. Ends that are not written are not given here. * marks the point of attachment. C18 diacid = O=C(O)CCCCCCCCCCCCCCCCC(=O)*; γGlu = O=C(O)[C@H](CCC(=O)[*:2])N[*:1]; AEEA = NCCOCCOCC(=O)O; Aib = CC(C)(N)C(=O)O

T1: human amylin receptor (calcitonin receptor co-expressed with receptor activity modifying protein, RAMP3) (human, UniProt P30988 25-474; O60896 24-148)
T1 sequence (looked up) 1: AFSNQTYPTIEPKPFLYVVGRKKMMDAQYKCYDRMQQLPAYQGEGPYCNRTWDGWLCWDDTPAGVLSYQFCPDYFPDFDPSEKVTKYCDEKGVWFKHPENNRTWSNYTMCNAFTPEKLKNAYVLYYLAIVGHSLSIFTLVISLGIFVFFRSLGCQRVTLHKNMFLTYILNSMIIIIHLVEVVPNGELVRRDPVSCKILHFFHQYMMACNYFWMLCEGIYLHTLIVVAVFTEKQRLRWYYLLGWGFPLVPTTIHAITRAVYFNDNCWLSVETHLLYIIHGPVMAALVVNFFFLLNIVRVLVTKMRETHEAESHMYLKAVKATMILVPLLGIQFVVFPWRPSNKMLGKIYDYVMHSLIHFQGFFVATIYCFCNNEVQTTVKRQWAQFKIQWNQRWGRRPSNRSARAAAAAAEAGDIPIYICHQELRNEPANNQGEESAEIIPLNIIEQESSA
T1 sequence (looked up) 2: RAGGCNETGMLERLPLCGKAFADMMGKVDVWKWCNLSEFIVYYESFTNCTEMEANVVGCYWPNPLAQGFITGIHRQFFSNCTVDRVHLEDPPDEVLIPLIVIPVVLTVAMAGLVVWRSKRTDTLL

T2: human calcitonin receptor (human, UniProt P30988 25-474)
T2 sequence (looked up): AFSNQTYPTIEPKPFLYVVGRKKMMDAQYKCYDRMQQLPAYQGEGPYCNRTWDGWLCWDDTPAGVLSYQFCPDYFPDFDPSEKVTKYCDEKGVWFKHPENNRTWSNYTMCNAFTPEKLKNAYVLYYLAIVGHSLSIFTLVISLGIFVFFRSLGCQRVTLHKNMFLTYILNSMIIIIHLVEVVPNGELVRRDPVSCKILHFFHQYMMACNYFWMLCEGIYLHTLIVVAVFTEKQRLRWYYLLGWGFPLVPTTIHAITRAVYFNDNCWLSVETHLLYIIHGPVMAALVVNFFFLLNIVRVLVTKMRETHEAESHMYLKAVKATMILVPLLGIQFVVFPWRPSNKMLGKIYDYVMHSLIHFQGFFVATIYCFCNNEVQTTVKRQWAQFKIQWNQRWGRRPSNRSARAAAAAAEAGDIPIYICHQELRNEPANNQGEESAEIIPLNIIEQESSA


Columns and labels:
[1] = molecular target: T1, human amylin receptor (calcitonin …); experiment: cell-based or functional assay
[2] = molecular target: T2, human calcitonin receptor; experiment: cell-based or functional assay

Row | EC50 (cAMP production) [1] | Ratio (EC50 hCTR / EC50 hAMYR3) [1] | EC50 (cAMP production) [2] | Binder
1 | 0.173 nM | 12 | 2.16 nM | K([AEEA-AEEA-γGlu-C18 diacid])GGGKCNTATCATQRLANFLVHSSNNFGPILPPTNVGSNTY-NH2 (disulfide 6-11) [Peptide 7 (SEQ ID NO: 7)]
2 | 0.098 nM | 2 | 0.235 nM | K([γGlu-C18 diacid])KCNTATCATQRLANFLSHSS[Aib]NFGPILPPTPVGSNTY-NH2 (disulfide 3-8; N-terminus assumed; SMILES CC[C@H](C)[C@H](NC(=O)[C@@H]1CCCN1C(=O)CNC(=O)[C@H](Cc1ccccc1)NC(=O)[C@H](CC(N)=O)NC(=O)C(C)(C)NC(=O)[C@H](CO)NC(=O)[C@H](CO)NC(=O)[C@H](Cc1c[nH]cn1)NC(=O)[C@H](CO)NC(=O)[C@H](CC(C)C)NC(=O)[C@H](Cc1ccccc1)NC(=O)[C@H](CC(N)=O)NC(=O)[C@H](C)NC(=O)[C@H](CC(C)C)NC(=O)[C@H](CCCNC(=N)N)NC(=O)[C@H](CCC(N)=O)NC(=O)[C@@H](NC(=O)[C@H](C)NC(=O)[C@@H]1CSSC[C@H](NC(=O)[C@H](CCCCN)NC(=O)[C@@H](N)CCCCNC(=O)CC[C@H](NC(=O)CCCCCCCCCCCCCCCCC(=O)O)C(=O)O)C(=O)N[C@@H](CC(N)=O)C(=O)N[C@@H]([C@@H](C)O)C(=O)N[C@@H](C)C(=O)N[C@@H]([C@@H](C)O)C(=O)N1)[C@@H](C)O)C(=O)N[C@@H](CC(C)C)C(=O)N1CCC[C@H]1C(=O)N1CCC[C@H]1C(=O)N[C@H](C(=O)N1CCC[C@H]1C(=O)N[C@H](C(=O)NCC(=O)N[C@@H](CO)C(=O)N[C@@H](CC(N)=O)C(=O)N[C@H](C(=O)N[C@@H](Cc1ccc(O)cc1)C(N)=O)[C@@H](C)O)C(C)C)[C@@H](C)O) [Peptide 53 (SEQ ID NO: 53)]
3 | 0.071 nM | 1 | 0.065 nM | K([γGlu-C18 diacid])KCNTATCATQRLANFLVHSS[Aib]NFGPILPPTNVGSNTP-NH2 (disulfide 3-8; N-terminus assumed; SMILES CC[C@H](C)[C@H](NC(=O)[C@@H]1CCCN1C(=O)CNC(=O)[C@H](Cc1ccccc1)NC(=O)[C@H](CC(N)=O)NC(=O)C(C)(C)NC(=O)[C@H](CO)NC(=O)[C@H](CO)NC(=O)[C@H](Cc1c[nH]cn1)NC(=O)[C@@H](NC(=O)[C@H](CC(C)C)NC(=O)[C@H](Cc1ccccc1)NC(=O)[C@H](CC(N)=O)NC(=O)[C@H](C)NC(=O)[C@H](CC(C)C)NC(=O)[C@H](CCCNC(=N)N)NC(=O)[C@H](CCC(N)=O)NC(=O)[C@@H](NC(=O)[C@H](C)NC(=O)[C@@H]1CSSC[C@H](NC(=O)[C@H](CCCCN)NC(=O)[C@@H](N)CCCCNC(=O)CC[C@H](NC(=O)CCCCCCCCCCCCCCCCC(=O)O)C(=O)O)C(=O)N[C@@H](CC(N)=O)C(=O)N[C@@H]([C@@H](C)O)C(=O)N[C@@H](C)C(=O)N[C@@H]([C@@H](C)O)C(=O)N1)[C@@H](C)O)C(C)C)C(=O)N[C@@H](CC(C)C)C(=O)N1CCC[C@H]1C(=O)N1CCC[C@H]1C(=O)N[C@H](C(=O)N[C@@H](CC(N)=O)C(=O)N[C@H](C(=O)NCC(=O)N[C@@H](CO)C(=O)N[C@@H](CC(N)=O)C(=O)N[C@H](C(=O)N1CCC[C@H]1C(N)=O)[C@@H](C)O)C(C)C)[C@@H](C)O) [Peptide 58 (SEQ ID NO: 58)]
4 | 0.07 nM | 7 | 0.493 nM | K([γGlu-C18 diacid])CNTATCATQRLANFLVHSS[Aib]NFGPILPPTNVGSNTY-NH2 (disulfide 2-7; N-terminus assumed; SMILES CC[C@H](C)[C@H](NC(=O)[C@@H]1CCCN1C(=O)CNC(=O)[C@H](Cc1ccccc1)NC(=O)[C@H](CC(N)=O)NC(=O)C(C)(C)NC(=O)[C@H](CO)NC(=O)[C@H](CO)NC(=O)[C@H](Cc1c[nH]cn1)NC(=O)[C@@H](NC(=O)[C@H](CC(C)C)NC(=O)[C@H](Cc1ccccc1)NC(=O)[C@H](CC(N)=O)NC(=O)[C@H](C)NC(=O)[C@H](CC(C)C)NC(=O)[C@H](CCCNC(=N)N)NC(=O)[C@H](CCC(N)=O)NC(=O)[C@@H](NC(=O)[C@H](C)NC(=O)[C@@H]1CSSC[C@H](NC(=O)[C@@H](N)CCCCNC(=O)CC[C@H](NC(=O)CCCCCCCCCCCCCCCCC(=O)O)C(=O)O)C(=O)N[C@@H](CC(N)=O)C(=O)N[C@@H]([C@@H](C)O)C(=O)N[C@@H](C)C(=O)N[C@@H]([C@@H](C)O)C(=O)N1)[C@@H](C)O)C(C)C)C(=O)N[C@@H](CC(C)C)C(=O)N1CCC[C@H]1C(=O)N1CCC[C@H]1C(=O)N[C@H](C(=O)N[C@@H](CC(N)=O)C(=O)N[C@H](C(=O)NCC(=O)N[C@@H](CO)C(=O)N[C@@H](CC(N)=O)C(=O)N[C@H](C(=O)N[C@@H](Cc1ccc(O)cc1)C(N)=O)[C@@H](C)O)C(C)C)[C@@H](C)O) [Peptide 56 (SEQ ID NO: 56)]
5 | 0.157 nM | 5 | 0.809 nM | K([γGlu-C18 diacid])CNTATCATQRLANFLVHSS[Aib]NFGPI[dL]PPTNVGSNTY-NH2 (disulfide 2-7; N-terminus assumed; SMILES CC[C@H](C)[C@H](NC(=O)[C@@H]1CCCN1C(=O)CNC(=O)[C@H](Cc1ccccc1)NC(=O)[C@H](CC(N)=O)NC(=O)C(C)(C)NC(=O)[C@H](CO)NC(=O)[C@H](CO)NC(=O)[C@H](Cc1c[nH]cn1)NC(=O)[C@@H](NC(=O)[C@H](CC(C)C)NC(=O)[C@H](Cc1ccccc1)NC(=O)[C@H](CC(N)=O)NC(=O)[C@H](C)NC(=O)[C@H](CC(C)C)NC(=O)[C@H](CCCNC(=N)N)NC(=O)[C@H](CCC(N)=O)NC(=O)[C@@H](NC(=O)[C@H](C)NC(=O)[C@@H]1CSSC[C@H](NC(=O)[C@@H](N)CCCCNC(=O)CC[C@H](NC(=O)CCCCCCCCCCCCCCCCC(=O)O)C(=O)O)C(=O)N[C@@H](CC(N)=O)C(=O)N[C@@H]([C@@H](C)O)C(=O)N[C@@H](C)C(=O)N[C@@H]([C@@H](C)O)C(=O)N1)[C@@H](C)O)C(C)C)C(=O)N[C@H](CC(C)C)C(=O)N1CCC[C@H]1C(=O)N1CCC[C@H]1C(=O)N[C@H](C(=O)N[C@@H](CC(N)=O)C(=O)N[C@H](C(=O)NCC(=O)N[C@@H](CO)C(=O)N[C@@H](CC(N)=O)C(=O)N[C@H](C(=O)N[C@@H](Cc1ccc(O)cc1)C(N)=O)[C@@H](C)O)C(C)C)[C@@H](C)O) [Peptide 59 (SEQ ID NO: 59)]
6 | 7.59 nM | 0.2 | 1.51 nM | K([γGlu-C18 diacid])KCNTATCATQRLANFLSHSS[Aib]NFGPILPPTNVPSNTY-NH2 (disulfide 3-8; N-terminus assumed; SMILES CC[C@H](C)[C@H](NC(=O)[C@@H]1CCCN1C(=O)CNC(=O)[C@H](Cc1ccccc1)NC(=O)[C@H](CC(N)=O)NC(=O)C(C)(C)NC(=O)[C@H](CO)NC(=O)[C@H](CO)NC(=O)[C@H](Cc1c[nH]cn1)NC(=O)[C@H](CO)NC(=O)[C@H](CC(C)C)NC(=O)[C@H](Cc1ccccc1)NC(=O)[C@H](CC(N)=O)NC(=O)[C@H](C)NC(=O)[C@H](CC(C)C)NC(=O)[C@H](CCCNC(=N)N)NC(=O)[C@H](CCC(N)=O)NC(=O)[C@@H](NC(=O)[C@H](C)NC(=O)[C@@H]1CSSC[C@H](NC(=O)[C@H](CCCCN)NC(=O)[C@@H](N)CCCCNC(=O)CC[C@H](NC(=O)CCCCCCCCCCCCCCCCC(=O)O)C(=O)O)C(=O)N[C@@H](CC(N)=O)C(=O)N[C@@H]([C@@H](C)O)C(=O)N[C@@H](C)C(=O)N[C@@H]([C@@H](C)O)C(=O)N1)[C@@H](C)O)C(=O)N[C@@H](CC(C)C)C(=O)N1CCC[C@H]1C(=O)N1CCC[C@H]1C(=O)N[C@H](C(=O)N[C@@H](CC(N)=O)C(=O)N[C@H](C(=O)N1CCC[C@H]1C(=O)N[C@@H](CO)C(=O)N[C@@H](CC(N)=O)C(=O)N[C@H](C(=O)N[C@@H](Cc1ccc(O)cc1)C(N)=O)[C@@H](C)O)C(C)C)[C@@H](C)O) [Peptide 54 (SEQ ID NO: 54)]
7 | 0.678 nM | 3 | 1.87 nM | K([γGlu-C18 diacid])KCNTATCATQRLANFLSHSS[Aib]NFGPILPPTNVGSPTY-NH2 (disulfide 3-8; N-terminus assumed; SMILES CC[C@H](C)[C@H](NC(=O)[C@@H]1CCCN1C(=O)CNC(=O)[C@H](Cc1ccccc1)NC(=O)[C@H](CC(N)=O)NC(=O)C(C)(C)NC(=O)[C@H](CO)NC(=O)[C@H](CO)NC(=O)[C@H](Cc1c[nH]cn1)NC(=O)[C@H](CO)NC(=O)[C@H](CC(C)C)NC(=O)[C@H](Cc1ccccc1)NC(=O)[C@H](CC(N)=O)NC(=O)[C@H](C)NC(=O)[C@H](CC(C)C)NC(=O)[C@H](CCCNC(=N)N)NC(=O)[C@H](CCC(N)=O)NC(=O)[C@@H](NC(=O)[C@H](C)NC(=O)[C@@H]1CSSC[C@H](NC(=O)[C@H](CCCCN)NC(=O)[C@@H](N)CCCCNC(=O)CC[C@H](NC(=O)CCCCCCCCCCCCCCCCC(=O)O)C(=O)O)C(=O)N[C@@H](CC(N)=O)C(=O)N[C@@H]([C@@H](C)O)C(=O)N[C@@H](C)C(=O)N[C@@H]([C@@H](C)O)C(=O)N1)[C@@H](C)O)C(=O)N[C@@H](CC(C)C)C(=O)N1CCC[C@H]1C(=O)N1CCC[C@H]1C(=O)N[C@H](C(=O)N[C@@H](CC(N)=O)C(=O)N[C@H](C(=O)NCC(=O)N[C@@H](CO)C(=O)N1CCC[C@H]1C(=O)N[C@H](C(=O)N[C@@H](Cc1ccc(O)cc1)C(N)=O)[C@@H](C)O)C(C)C)[C@@H](C)O) [Peptide 55 (SEQ ID NO: 55)]
